Article doi:10.1101/497024

Target: HeV PNT3 (aa 200-310 of the Hendra virus P/V protein) (Hendra virus) (UniProt O55778)
Assay: SAXS

In the case of “HeV PNT3 (aa 200-310 of the Hendra virus P/V protein) (from UniProt O55778 200-310) (domain or fragment)”, the stoichiometry N is reported as 100 monomers.
